Experimental data: US20030219446A1

Assays:
CD28 receptor (human) [1] = target: CD28 receptor (human) (UniProt P10747); test: cell-based or functional assay
[2] = target: CD28Ig fusion protein (human) (UniProt P10747); test: plate binding assay, ^125I-B7Ig (24 nM) on immobilized CD28Ig
[3] = target: CD28Ig fusion protein (human) (UniProt P10747); test: competition of ^125I-B7Ig binding to immobilized CD28Ig by unlabeled B7Ig
[4] = target: CD28Ig fusion protein (human) (UniProt P10747); test: competition of ^125I-B7Ig binding to immobilized CD28Ig
CD28 receptor (human) [5] = target: CD28 receptor (human) (UniProt P10747); test: flow cytometry, FITC-conjugated mAb 9.3 on CD28^+ CHO cells
CD28 receptor (human) [6] = target: CD28 receptor (human) (UniProt P10747); test: flow cytometry, FITC-conjugated mAb 9.3 on phytohemagglutinin-stimulated T cells
[7] = target: CD28Ig fusion protein (human) (UniProt P10747); test: competition of ^125I-B7Ig binding to immobilized CD28Ig by the unlabeled competitor
B7 antigen (human) [8] = target: B7 antigen (human) (UniProt P33681); test: cell-based or functional assay
B7 antigen (human) [9] = target: B7 antigen (human) (UniProt P33681); test: flow cytometry, 5E1 cells; -cold minus +cold
B7 antigen (human) [10] = target: B7 antigen (human) (UniProt P33681); test: flow cytometry, T51 cells; -cold minus +cold
B7 antigen (human) [11] = target: B7 antigen (human) (UniProt P33681); test: flow cytometry, Raji cells; -cold minus +cold
B7 antigen (human) [12] = target: B7 antigen (human) (UniProt P33681); test: flow cytometry, Daudi cells; -cold minus +cold
B7 antigen (human) [13] = target: B7 antigen (human) (UniProt P33681); test: flow cytometry, Jijoye cells; -cold minus +cold
B7 antigen (human) [14] = target: B7 antigen (human) (UniProt P33681); test: flow cytometry, 5E1 cells preincubated with unlabeled BB-1
B7 antigen (human) [15] = target: B7 antigen (human) (UniProt P33681); test: flow cytometry, T51 cells preincubated with unlabeled BB-1
B7 antigen (human) [16] = target: B7 antigen (human) (UniProt P33681); test: flow cytometry, Raji cells preincubated with unlabeled BB-1
B7 antigen (human) [17] = target: B7 antigen (human) (UniProt P33681); test: flow cytometry, Daudi cells preincubated with unlabeled BB-1
B7 antigen (human) [18] = target: B7 antigen (human) (UniProt P33681); test: flow cytometry, Jijoye cells preincubated with unlabeled BB-1
B7 antigen (human) [19] = target: B7 antigen (human) (UniProt P33681); test: flow cytometry, direct staining of 5E1 cells (positive for CD28 adhesion)
B7 antigen (human) [20] = target: B7 antigen (human) (UniProt P33681); test: flow cytometry, direct staining of T51 cells (positive for CD28 adhesion)
B7 antigen (human) [21] = target: B7 antigen (human) (UniProt P33681); test: flow cytometry, direct staining of Raji cells (positive for CD28 adhesion)
B7 antigen (human) [22] = target: B7 antigen (human) (UniProt P33681); test: flow cytometry, direct staining of Daudi cells (positive for CD28 adhesion)
B7 antigen (human) [23] = target: B7 antigen (human) (UniProt P33681); test: flow cytometry, direct staining of Jijoye cells (positive for CD28 adhesion)
B7 antigen (human) [24] = target: B7 antigen (human) (UniProt P33681); test: flow cytometry, Namalwa cells (negative for CD28 adhesion); -cold minus +cold
[25] = target: B7Ig fusion protein (human) (UniProt P33681); test: competition of ^125I-B7Ig binding to immobilized CD28Ig by the unlabeled competitor
B7 antigen (human) [26] = target: B7 antigen (human) (UniProt P33681); test: flow cytometry, 1A2 cells preincubated with unlabeled BB-1 (negative for CD28 adhesion)
B7 antigen (human) [27] = target: B7 antigen (human) (UniProt P33681); test: flow cytometry, CEM cells preincubated with unlabeled BB-1 (negative for CD28 adhesion)
B7 antigen (human) [28] = target: B7 antigen (human) (UniProt P33681); test: flow cytometry, HL60 cells preincubated with unlabeled BB-1 (negative for CD28 adhesion)
B7 antigen (human) [29] = target: B7 antigen (human) (UniProt P33681); test: flow cytometry, HSB2 cells preincubated with unlabeled BB-1 (negative for CD28 adhesion)
B7 antigen (human) [30] = target: B7 antigen (human) (UniProt P33681); test: flow cytometry, THP-1 cells preincubated with unlabeled BB-1 (negative for CD28 adhesion)
B7 antigen (human) [31] = target: B7 antigen (human) (UniProt P33681); test: flow cytometry, direct staining of 1A2 cells (negative for CD28 adhesion; presence of B7 not shown)
B7 antigen (human) [32] = target: B7 antigen (human) (UniProt P33681); test: flow cytometry, direct staining of HL60 cells (negative for CD28 adhesion; presence of B7 not shown)
B7 antigen (human) [33] = target: B7 antigen (human) (UniProt P33681); test: flow cytometry, direct staining of HSB2 cells (negative for CD28 adhesion; presence of B7 not shown)
B7 antigen (human) [34] = target: B7 antigen (human) (UniProt P33681); test: flow cytometry, direct staining of THP-1 cells (negative for CD28 adhesion; presence of B7 not shown)
B7 antigen (human) [35] = target: B7 antigen (human) (UniProt P33681); test: flow cytometry, direct staining of Namalwa cells (negative for CD28 adhesion; presence of B7 not shown)

B7Ig fusion protein (from UniProt P33681 35-215; P01857 99-330) (Fc fusion)
[^3H]-T incorporation of PBL, B7Ig (immob.), +Anti-CD3, Exp. 1 (CD28 receptor (human) [1]): 174000 cpm | [^3H]-T incorporation of PBL, B7Ig (immob.), -Anti-CD3, Exp. 1 (CD28 receptor (human) [1]): 100 cpm | radioactivity bound without competitor [2]: 7800 cpm | IC50 [3]: 280 nM

Monoclonal antibody (mAb) 9.3 (anti-CD28)
[^3H]-T incorporation of PBL, mAb 9.3 (immob.), +Anti-CD3, Exp. 1 (CD28 receptor (human) [1]): 137000 cpm | [^3H]-T incorporation of PBL, mAb 9.3 (immob.), -Anti-CD3, Exp. 1 (CD28 receptor (human) [1]): 100 cpm | [^3H]-T incorporation of PBL, mAb 9.3 (soln.), +Anti-CD3, Exp. 1 (CD28 receptor (human) [1]): 156000 cpm | [^3H]-T incorporation of PBL, mAb 9.3 (soln.), +Anti-CD3, Exp. 2 (CD28 receptor (human) [1]): 75800 cpm | [^3H]-T incorporation of PBL, mAb 9.3 (soln.), -Anti-CD3, Exp. 1 (CD28 receptor (human) [1]): 300 cpm | [^3H]-T incorporation of PBL, mAb 9.3 (soln.), -Anti-CD3, Exp. 2 (CD28 receptor (human) [1]): 400 cpm | adhesion of B7 transfected COS cells to CD28^+ CHO cells without EDTA, blocking by mAb 9.3 (CD28 receptor (human) [1]): 40% | adhesion of T51 cells to CD28^+ CHO cells, reduction by mAb 9.3 with EDTA (CD28 receptor (human) [1]): 93% | adhesion of T51 cells to CD28^+ CHO cells, reduction by mAb 9.3 without EDTA (CD28 receptor (human) [1]): 62% | half-maximal inhibition of CD28-mediated adhesion of PM lymphoblastoid cells to CD28^+ CHO cells (CD28 receptor (human) [1]): 10 nM | fold more effective as a competitor than B7Ig [4]: 65 fold | mean channel (linear fluorescence units) (linear fluorescence units) (CD28 receptor (human) [5]): 116 | mean channel (linear fluorescence units) (linear fluorescence units) (CD28 receptor (human) [6]): 11.3 | IC50 [7]: 4.3 nM

mAb 9.3 (Fab fragments)
[^3H]-T incorporation of PHA blasts, stimulation B7^+ CHO, mAb 9.3 Fab (CD28 receptor (human) [1]): 132000 cpm

mAb BB-1 (anti-B7) (antibody)
[^3H]-T incorporation of PHA blasts, stimulation B7^+ CHO, mAb BB-1 (B7 antigen (human) [8]): 98300 cpm | adhesion of Jijoye cells to CD28^+ CHO cells, blocking by mAb (B7 antigen (human) [8]): 60% | SPECIFIC BINDING (mean fluorescence) (B7 antigen (human) [9]): 10.6 linear units | SPECIFIC BINDING (mean fluorescence) (B7 antigen (human) [10]): 13.4 linear units | SPECIFIC BINDING (mean fluorescence) (B7 antigen (human) [11]): 4.3 linear units | SPECIFIC BINDING (mean fluorescence) (B7 antigen (human) [12]): 3.6 linear units | SPECIFIC BINDING (mean fluorescence) (B7 antigen (human) [13]): 15 linear units | mean fluorescence, FITC-BB-1 +COLD (B7 antigen (human) [14]): 2.4 linear units | mean fluorescence, FITC-BB-1 +COLD (B7 antigen (human) [15]): 3 linear units | mean fluorescence, FITC-BB-1 +COLD (B7 antigen (human) [16]): 2.8 linear units | mean fluorescence, FITC-BB-1 +COLD (B7 antigen (human) [17]): 2.8 linear units | mean fluorescence, FITC-BB-1 +COLD (B7 antigen (human) [18]): 2.8 linear units | mean fluorescence, FITC-BB-1 -COLD (B7 antigen (human) [19]): 13 linear units | mean fluorescence, FITC-BB-1 -COLD (B7 antigen (human) [20]): 16.4 linear units | mean fluorescence, FITC-BB-1 -COLD (B7 antigen (human) [21]): 7.1 linear units | mean fluorescence, FITC-BB-1 -COLD (B7 antigen (human) [22]): 6.4 linear units | mean fluorescence, FITC-BB-1 -COLD (B7 antigen (human) [23]): 17.8 linear units | SPECIFIC BINDING (mean fluorescence) (B7 antigen (human) [24]): 1.6 linear units | IC50 [25]: 140 nM | mean fluorescence, FITC-BB-1 +COLD (B7 antigen (human) [26]): 4.3 linear units | mean fluorescence, FITC-BB-1 +COLD (B7 antigen (human) [27]): 1.9 linear units | mean fluorescence, FITC-BB-1 +COLD (B7 antigen (human) [28]): 3.1 linear units | mean fluorescence, FITC-BB-1 +COLD (B7 antigen (human) [29]): 2.3 linear units | mean fluorescence, FITC-BB-1 +COLD (B7 antigen (human) [30]): 3 linear units | mean fluorescence, FITC-BB-1 -COLD (B7 antigen (human) [31]): 4.5 linear units | mean fluorescence, FITC-BB-1 -COLD (B7 antigen (human) [32]): 3.1 linear units | mean fluorescence, FITC-BB-1 -COLD (B7 antigen (human) [33]): 2.3 linear units | mean fluorescence, FITC-BB-1 -COLD (B7 antigen (human) [34]): 3.1 linear units | mean fluorescence, FITC-BB-1 -COLD (B7 antigen (human) [35]): 3.8 linear units
